Source: paper PMC9700851, “Interaction kinetics between p115-RhoGEF and Gα13 are determined by unique molecular interactions affecting agonist sensitivity” (Communications Biology, 2022)

Key:
Experiment in all cases: FRET or BRET; single-cell FRET in intact HEK293T cells co-transfected with TPα receptor, Gβ1 and Gγ2; donor mTurquoise2 (or CFP) on the Gα subunit, acceptor YFP on the RhoGEF; F535/F480 emission ratio on superfusion with the agonist U-46619 and after its washout (AUC of decay over the 10 min washout); room temperature, buffer pH 7.3
[1] = target: Gα13-mTurq2 (mTurquoise2 between amino acids 127 and 128) (mouse) (UniProt P27601)
[2] = target: Gα13(135) (mTurquoise2 between amino acids 135 and 136) (mouse) (UniProt P27601)
Gα13(135)R128A (mouse) = Gα13(135)R128A (mouse) (UniProt P27601)
Gα13(135)R128A = target: T1, Gα13(135)R128A (mouse, UniProt P27601 1-377, R128A)
T1 construct: Gα13, mouse; also called Gα13-R128A; source: HEK293T, transfected, in intact cells
T1 sequence (looked up): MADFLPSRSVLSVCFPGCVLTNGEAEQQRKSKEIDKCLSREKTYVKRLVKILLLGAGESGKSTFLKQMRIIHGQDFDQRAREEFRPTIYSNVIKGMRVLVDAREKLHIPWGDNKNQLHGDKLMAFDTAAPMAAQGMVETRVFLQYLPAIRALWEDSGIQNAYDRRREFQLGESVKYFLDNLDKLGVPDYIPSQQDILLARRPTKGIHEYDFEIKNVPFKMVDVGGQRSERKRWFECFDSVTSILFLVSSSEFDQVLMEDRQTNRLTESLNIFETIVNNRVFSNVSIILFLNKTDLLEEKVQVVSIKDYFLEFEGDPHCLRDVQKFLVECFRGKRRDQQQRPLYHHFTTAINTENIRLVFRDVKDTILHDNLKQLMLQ

[3] = target: T2, Gα13-mTurq2 (mTurquoise2 between amino acids 127 and 128) (mouse, UniProt P27601 1-377); conditions: partners not purified
T2 construct: Gα13, mouse; co-expressed with human TPα receptor, human Gβ1 and bovine Gγ2; also called Gα13(127); mTurq2-Gα13; source: HEK293T, transfected, in intact cells; not shown: mTurquoise2, internal (after residue 127), kept
T2 sequence (looked up): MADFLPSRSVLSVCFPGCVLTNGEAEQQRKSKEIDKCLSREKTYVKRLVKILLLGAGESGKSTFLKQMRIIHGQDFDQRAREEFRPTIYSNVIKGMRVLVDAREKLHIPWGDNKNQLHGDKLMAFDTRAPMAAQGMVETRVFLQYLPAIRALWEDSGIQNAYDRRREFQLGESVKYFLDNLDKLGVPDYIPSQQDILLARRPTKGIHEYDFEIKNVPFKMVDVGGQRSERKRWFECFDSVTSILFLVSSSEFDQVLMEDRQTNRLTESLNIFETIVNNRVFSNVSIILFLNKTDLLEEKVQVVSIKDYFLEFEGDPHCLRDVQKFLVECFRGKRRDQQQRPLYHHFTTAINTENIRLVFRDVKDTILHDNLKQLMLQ

[4] = target: T3, Gα13(135) (mTurquoise2 between amino acids 135 and 136) (mouse, UniProt P27601 1-377); conditions: partners not purified
T3 construct: Gα13, mouse; Gibson assembly; also called wt-Gα13; source: HEK293T, transfected, in intact cells
T3 sequence (looked up): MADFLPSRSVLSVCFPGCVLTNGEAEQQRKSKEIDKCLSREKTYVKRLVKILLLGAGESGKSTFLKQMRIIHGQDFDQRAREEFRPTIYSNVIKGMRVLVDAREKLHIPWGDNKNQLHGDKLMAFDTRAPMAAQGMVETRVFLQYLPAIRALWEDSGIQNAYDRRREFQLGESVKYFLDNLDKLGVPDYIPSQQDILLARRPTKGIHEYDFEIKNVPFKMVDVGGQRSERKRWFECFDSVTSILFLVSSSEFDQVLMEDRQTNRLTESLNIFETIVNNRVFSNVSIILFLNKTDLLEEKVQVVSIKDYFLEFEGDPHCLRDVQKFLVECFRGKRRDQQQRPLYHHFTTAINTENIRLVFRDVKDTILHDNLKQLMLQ

## Chimera1 (p115-RhoGEF amino acids 1-232 and LARG amino acids 559-1544) (from UniProt Q61210 1-232; Q9NZN5 559-1544)
[1]
  mean AUC of decay of the FRET signal after agonist washout (arbitrary unit): 270

## Chimera 2 (full length p115 with the RH domain of LARG, amino acids 370-558, instead of p115 amino acids 44-232) (from UniProt Q61210 1-43; Q9NZN5 370-558; Q61210 233-912)
[1]
  mean AUC of decay of the FRET signal after agonist washout (arbitrary unit): 274

## Chimera 3 (full length LARG with the RH domain of p115, amino acids 44-232, instead of LARG amino acids 370-558) (from UniProt Q9NZN5 1-369; Q61210 44-232; Q9NZN5 559-1544)
[1]
  mean AUC of decay of the FRET signal after agonist washout (arbitrary unit): 404

## eYFP-p115-RhoGEF (from UniProt Q61210 1-920) (natural protein)
[2]
  mean AUC of decay of the FRET signal after agonist washout (arbitrary unit): 284
[1]
  mean AUC of decay of the FRET signal after agonist washout (arbitrary unit): 331
Gα13(135)R128A (mouse)
  mean AUC of decay of the FRET signal after agonist washout (arbitrary unit): 417

## p115-E32G (from UniProt Q61210 1-920) (natural protein)
[2]
  mean AUC of decay of the FRET signal after agonist washout (arbitrary unit): 453
[1]
  mean AUC of decay of the FRET signal after agonist washout (arbitrary unit): 468
Gα13(135)R128A
  mean AUC of decay of the FRET signal after agonist washout (arbitrary unit): 444

## p115-R (p115-RhoGEF amino acids 1-245) (from UniProt Q61210 1-245) (domain or fragment)
[1]
  mean AUC of decay of the FRET signal after agonist washout (arbitrary unit): 343

## p115-Rshort (p115-RhoGEF amino acids 34-235) (from UniProt Q61210 34-235) (domain or fragment)
[1]
  mean AUC of decay of the FRET signal after agonist washout (arbitrary unit): 444

B1: LARG-Rshort (LARG amino acids 360-561) (domain or fragment, human, UniProt Q9NZN5 360-561, looked up)
chain: TEHEQINGQCSCFQSIELLKSRPAHLAVFLHHVVSQFDPATLLCYLYSDLYKHTNSKETRRIFLEFHQFFLDRSAHLKVSVPDEMSADLEKRRPELIPEDLHRHYIQTMQERVHPEVQRHLEDFRQKRSMGLTLAESELTKLDAERDKDRLTLEKERTCAEQIVAKIEEVLMTAQAVEEDKSSTMQYVILMYMKHLGVKVKE
notes: LARG, human, RH domain without the region N-terminal to it; source: HEK293T, transfected, in intact cells
[3]
  mean AUC of decay of the FRET signal after agonist washout: 380 arbitrary unit

B2: eYFP-human LARG (leukemia-associated RhoGEF) (natural protein, UniProt Q9NZN5 1-1544, looked up)
chain: MSGTQSTITDRFPLKKPIRHGSILNRESPTDKKQKVERIASHDFDPTDSSSKKTKSSSEESRSEIYGLVQRCVIIQKDDNGFGLTVSGDNPVFVQSVKEDGAAMRAGVQTGDRIIKVNGTLVTHSNHLEVVKLIKSGSYVALTVQGRPPGSPQIPLADSEVEPSVIGHMSPIMTSPHSPGASGNMERITSPVLMGEENNVVHNQKVEILRKMLQKEQERLQLLQEDYNRTPAQRLLKEIQEAKKHIPQLQEQLSKATGSAQDGAVVTPSRPLGDTLTVSEAETDPGDVLGRTDCSSGDASRPSSDNADSPKSGPKERIYLEENPEKSETIQDTDTQSLVGSPSTRIAPHIIGAEDDDFGTEHEQINGQCSCFQSIELLKSRPAHLAVFLHHVVSQFDPATLLCYLYSDLYKHTNSKETRRIFLEFHQFFLDRSAHLKVSVPDEMSADLEKRRPELIPEDLHRHYIQTMQERVHPEVQRHLEDFRQKRSMGLTLAESELTKLDAERDKDRLTLEKERTCAEQIVAKIEEVLMTAQAVEEDKSSTMQYVILMYMKHLGVKVKEPRNLEHKRGRIGFLPKIKQSMKKDKEGEEKGKRRGFPSILGPPRRPSRHDNSAIGRAMELQKARHPKHLSTPSSVSPEPQDSAKLRQSGLANEGTDAGYLPANSMSSVASGASFSQEGGKENDTGSKQVGETSAPGDTLDGTPRTLNTVFDFPPPPLDQVQEEECEVERVTEHGTPKPFRKFDSVAFGESQSEDEQFENDLETDPPNWQQLVSREVLLGLKPCEIKRQEVINELFYTERAHVRTLKVLDQVFYQRVSREGILSPSELRKIFSNLEDILQLHIGLNEQMKAVRKRNETSVIDQIGEDLLTWFSGPGEEKLKHAAATFCSNQPFALEMIKSRQKKDSRFQTFVQDAESNPLCRRLQLKDIIPTQMQRLTKYPLLLDNIAKYTEWPTEREKVKKAADHCRQILNYVNQAVKEAENKQRLEDYQRRLDTSSLKLSEYPNVEELRNLDLTKRKMIHEGPLVWKVNRDKTIDLYTLLLEDILVLLQKQDDRLVLRCHSKILASTADSKHTFSPVIKLSTVLVRQVATDNKALFVISMSDNGAQIYELVAQTVSEKTVWQDLICRMAASVKEQSTKPIPLPQSTPGEGDNDEEDPSKLKEEQHGISVTGLQSPDRDLGLESTLISSKPQSHSLSTSGKSEVRDLFVAERQFAKEQHTDGTLKEVGEDYQIAIPDSHLPVSEERWALDALRNLGLLKQLLVQQLGLTEKSVQEDWQHFPRYRTASQGPQTDSVIQNSENIKAYHSGEGHMPFRTGTGDIATCYSPRTSTESFAPRDSVGLAPQDSQASNILVMDHMIMTPEMPTMEPEGGLDDSGEHFFDAREAHSDENPSEGDGAVNKEEKDVNLRISGNYLILDGYDPVQESSTDEEVASSLTLQPMTGIPAVESTHQQQHSPQNTHSDGAISPFTPEFLVQQRWGAMEYSCFEIQSPSSCADSQSQIMEYIHKIEADLEHLKKVEESYTILCQRLAGSALTDKHSDKS
notes: LARG (leukemia-associated RhoGEF), human; also called YFP-LARG; wt-LARG; source: HEK293T, transfected, in intact cells; not shown: YFP, N-terminal, kept
Gα13(135)R128A; partners not purified
  mean AUC of decay of the FRET signal after agonist washout: 495 arbitrary unit
[3]
  mean AUC of decay of the FRET signal after agonist washout: 448 arbitrary unit
[4]
  mean AUC of decay of the FRET signal after agonist washout: 462 arbitrary unit

B3: LARG-PR (LARG amino acids 1-558) (domain or fragment, human, UniProt Q9NZN5 1-558, looked up)
chain: MSGTQSTITDRFPLKKPIRHGSILNRESPTDKKQKVERIASHDFDPTDSSSKKTKSSSEESRSEIYGLVQRCVIIQKDDNGFGLTVSGDNPVFVQSVKEDGAAMRAGVQTGDRIIKVNGTLVTHSNHLEVVKLIKSGSYVALTVQGRPPGSPQIPLADSEVEPSVIGHMSPIMTSPHSPGASGNMERITSPVLMGEENNVVHNQKVEILRKMLQKEQERLQLLQEDYNRTPAQRLLKEIQEAKKHIPQLQEQLSKATGSAQDGAVVTPSRPLGDTLTVSEAETDPGDVLGRTDCSSGDASRPSSDNADSPKSGPKERIYLEENPEKSETIQDTDTQSLVGSPSTRIAPHIIGAEDDDFGTEHEQINGQCSCFQSIELLKSRPAHLAVFLHHVVSQFDPATLLCYLYSDLYKHTNSKETRRIFLEFHQFFLDRSAHLKVSVPDEMSADLEKRRPELIPEDLHRHYIQTMQERVHPEVQRHLEDFRQKRSMGLTLAESELTKLDAERDKDRLTLEKERTCAEQIVAKIEEVLMTAQAVEEDKSSTMQYVILMYMKHLGVK
notes: LARG, human, with the PDZ and RH domains; source: HEK293T, transfected, in intact cells
[3]
  mean AUC of decay of the FRET signal after agonist washout: 464 arbitrary unit
